Source: US20210079089A1 (SURROZEN OPERATING, published 2021)

Tests used:
LRP6E3E4_O75581_631-1246 [1] = molecular target: T1, LRP6E3E4_O75581_631-1246 (Homo sapiens (Human), UniProt O75581 631-1246, biotinylated in the BLI/SPR assays (C-terminal biotin acceptor peptide)); test: Octet BLI, affinity class
T1 construct: The entry holds residues 631-1246 of UniProt O75581 followed by a biotin acceptor peptide and eight His
T1 sequence: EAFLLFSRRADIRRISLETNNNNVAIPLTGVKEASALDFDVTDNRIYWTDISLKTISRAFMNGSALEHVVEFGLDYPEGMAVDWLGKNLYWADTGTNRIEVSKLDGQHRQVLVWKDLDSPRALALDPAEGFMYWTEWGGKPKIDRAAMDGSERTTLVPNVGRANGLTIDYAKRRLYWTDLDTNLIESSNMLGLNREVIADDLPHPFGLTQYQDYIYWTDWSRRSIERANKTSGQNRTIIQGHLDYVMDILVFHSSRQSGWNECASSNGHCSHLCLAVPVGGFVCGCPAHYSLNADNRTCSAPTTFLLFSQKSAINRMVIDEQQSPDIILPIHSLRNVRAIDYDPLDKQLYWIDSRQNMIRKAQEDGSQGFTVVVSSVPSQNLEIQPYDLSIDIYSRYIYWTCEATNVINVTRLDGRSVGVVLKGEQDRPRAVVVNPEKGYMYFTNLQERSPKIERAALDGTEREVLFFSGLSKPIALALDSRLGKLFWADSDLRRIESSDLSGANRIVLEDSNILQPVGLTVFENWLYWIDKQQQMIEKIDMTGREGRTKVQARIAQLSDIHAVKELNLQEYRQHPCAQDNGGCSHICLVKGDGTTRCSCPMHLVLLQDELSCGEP
Method: (§1) Binding kinetics of antibody fragments to LRP5 extracellular domain (LRP5 ECD) and/or LRP6 extracellular domain (LRP6 ECD) protein targets was determined by bio-layer interferometry (BLI) using Octet Red 96 (PALL ForteBio, Fremont, Calif.) instruments at 30° C., 1000 rpm with streptavidin (SA) biosensors. C-terminal biotinylated LRP ECD recombinant protein was diluted to 20 nM in the running buffer (PBS, 0.05% Tween-20, 0.5% BSA, pH 7.2) and captured to the SA biosensor until coupling length reached 0.2 nm. Following capture of the LRP5 or LRP6, the SA biosensor with captured biotinylated-LRP5 or biotinylated LRP6 was dipped into wells containing the relevant antibody fragment at […] (0, 1.37, 4.12, 12.4, 37, 111.1, 333.3, 1000 nM) in running buffer, plus a well with only running buffer as a reference channel. KD was determined by global fitting, 1:1 binding model according to manufacturer recommended settings.

LRP6e1e2 [2] = molecular target: T2, LRP6e1e2 (UniProt O75581 20-630, limits assumed, C-terminally biotinylated); test: Octet BLI, affinity class
T2 construct: domain: E1E2; also called LRP6 E1E2 domains
T2 sequence (looked up): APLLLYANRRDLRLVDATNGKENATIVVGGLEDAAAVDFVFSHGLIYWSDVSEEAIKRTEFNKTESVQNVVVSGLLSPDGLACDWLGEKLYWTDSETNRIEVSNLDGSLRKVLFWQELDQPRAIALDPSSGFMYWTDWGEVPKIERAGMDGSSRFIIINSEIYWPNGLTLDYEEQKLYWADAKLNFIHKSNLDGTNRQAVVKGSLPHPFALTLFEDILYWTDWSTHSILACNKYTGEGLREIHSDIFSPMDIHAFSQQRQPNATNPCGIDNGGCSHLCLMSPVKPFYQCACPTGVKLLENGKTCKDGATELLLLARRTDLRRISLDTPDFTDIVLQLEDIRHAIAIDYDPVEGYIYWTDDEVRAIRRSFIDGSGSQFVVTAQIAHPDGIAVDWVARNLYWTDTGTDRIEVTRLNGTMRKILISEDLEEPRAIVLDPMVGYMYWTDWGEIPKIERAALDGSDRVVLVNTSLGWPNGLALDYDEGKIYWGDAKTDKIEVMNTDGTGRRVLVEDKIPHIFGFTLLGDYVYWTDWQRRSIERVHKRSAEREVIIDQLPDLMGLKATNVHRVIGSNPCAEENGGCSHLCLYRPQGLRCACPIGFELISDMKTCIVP
Method: as §1

LRP6e1e2 [3] = molecular target: T2, LRP6e1e2; test: Octet BLI or BIAcore SPR
LRP6E3E4_O75581_631-1246 [4] = molecular target: T1, LRP6E3E4_O75581_631-1246; test: Octet BLI or BIAcore SPR
biotinylated-LRP6 CRD = molecular target: T3, biotinylated-LRP6 CRD (UniProt O75581 631-1246, limits assumed, biotinylated); test: Octet BLI, biotinylated LRP6
T3 construct: LRP6 has no CRD
T3 sequence (looked up): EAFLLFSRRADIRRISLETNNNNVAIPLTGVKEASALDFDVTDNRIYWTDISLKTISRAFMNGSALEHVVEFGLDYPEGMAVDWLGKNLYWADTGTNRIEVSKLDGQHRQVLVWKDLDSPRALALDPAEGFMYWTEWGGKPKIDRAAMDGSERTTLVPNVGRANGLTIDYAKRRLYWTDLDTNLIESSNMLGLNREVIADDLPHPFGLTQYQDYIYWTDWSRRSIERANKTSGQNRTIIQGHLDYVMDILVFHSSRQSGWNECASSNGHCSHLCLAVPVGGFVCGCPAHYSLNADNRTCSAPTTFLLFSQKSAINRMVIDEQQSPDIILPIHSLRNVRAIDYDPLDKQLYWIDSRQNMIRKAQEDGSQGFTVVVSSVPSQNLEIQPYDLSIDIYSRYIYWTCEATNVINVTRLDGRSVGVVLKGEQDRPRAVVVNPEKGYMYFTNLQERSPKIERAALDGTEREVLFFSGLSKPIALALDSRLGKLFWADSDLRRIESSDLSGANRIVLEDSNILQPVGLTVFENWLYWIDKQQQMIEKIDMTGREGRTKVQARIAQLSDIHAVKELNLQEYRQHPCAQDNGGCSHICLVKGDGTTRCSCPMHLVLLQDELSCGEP
Method: as §1
One antibody fragment, 009S-E04, was selected for alanine-scanning mutagenesis of CDRs, and the respective LRP6 binding affinities of the various mutants were determined by Octet BLI as described in Example 1.

LRP6e1e2 [5] = molecular target: T2, LRP6e1e2; test: Octet BLI
Method: as §1

Kd (LRP6E3E4_O75581_631-1246 [4]) | Kd (biotinylated-LRP6 CRD) | also measured | Binder
– | – | Kd (LRP6E3E4_O75581_631-1246 [1]): > 500 nM; Kd (LRP6e1e2 [2]): < 500 nM; Kd (LRP6e1e2 [3]): < 500 nM | 009S-A03 (VHH) VHH: QVQLVESGGGLVQAGDSLRLSCVVSGRTFSVYGVGWFRQAPGKEREVVAAVSASGGYTWYADSVKGRFTISRDNAKSTAFLQMNSLQPEDTAVYYCKAAPRWGGATAYWGQGTQVTVSS
> 500 nM | – | Kd (LRP6E3E4_O75581_631-1246 [1]): > 500 nM | 009S-F04 (VHH) VHH: AVQLVESGGGVVQAGDSLTLSCTMSGRSLSSFAMGWFRRAPGKEREFVARISRGDGYTDEADSVKGRFTISRDNAKNTVYLQMNNVGPEDTAVYHCAAVQAVIGGTLTTAYDYWGQGTLVTVSS
> 500 nM | – | Kd (LRP6E3E4_O75581_631-1246 [1]): > 500 nM | 009S-A05 (VHH) VHH: AVQLVDSGGGLVQAGDSLTLSCAASGRTFSDYSMGWFRQAPGKEREFVAGISWIADNRYYADVVKGRFTISRDNAKNTVYLQMNSLKPEDTAVYYCTAGRSRYLYGSSLNGPYDYWGQGTQVTVSS
– | < 100 nM | – | 009S-E04 K1A (VHH) VHH: DVQLVESGGGLVQAGGSLRLACAGSGRIFAIYDIAWYRHPPGNQRELVAMIRPVVTEIDYADSVKGRFTISRNNAMKTVYLQMNNLKPEDTAVYYCNAARPWGSRDEYWGQGTQVTVSS
– | < 100 nM | – | 009S-E04 R2A (VHH) VHH: DVQLVESGGGLVQAGGSLRLACAGSGRIFAIYDIAWYRHPPGNQRELVAMIRPVVTEIDYADSVKGRFTISRNNAMKTVYLQMNNLKPEDTAVYYCNAKAPWGSRDEYWGQGTQVTVSS
– | < 100 nM | – | 009S-E04 P3A (VHH) VHH: DVQLVESGGGLVQAGGSLRLACAGSGRIFAIYDIAWYRHPPGNQRELVAMIRPVVTEIDYADSVKGRFTISRNNAMKTVYLQMNNLKPEDTAVYYCNAKRAWGSRDEYWGQGTQVTVSS
– | < 100 nM | – | 009S-E04 W4A (VHH) VHH: DVQLVESGGGLVQAGGSLRLACAGSGRIFAIYDIAWYRHPPGNQRELVAMIRPVVTEIDYADSVKGRFTISRNNAMKTVYLQMNNLKPEDTAVYYCNAKRPAGSRDEYWGQGTQVTVSS
– | < 100 nM | – | 009S-E04 E9A (VHH) VHH: DVQLVESGGGLVQAGGSLRLACAGSGRIFAIYDIAWYRHPPGNQRELVAMIRPVVTEIDYADSVKGRFTISRNNAMKTVYLQMNNLKPEDTAVYYCNAKRPWGSRDAYWGQGTQVTVSS
– | < 100 nM | – | 009S-E04 D8A (VHH) VHH: DVQLVESGGGLVQAGGSLRLACAGSGRIFAIYDIAWYRHPPGNQRELVAMIRPVVTEIDYADSVKGRFTISRNNAMKTVYLQMNNLKPEDTAVYYCNAKRPWGSRAEYWGQGTQVTVSS
– | < 100 nM | – | 009S-E04 Y10A (VHH) VHH: DVQLVESGGGLVQAGGSLRLACAGSGRIFAIYDIAWYRHPPGNQRELVAMIRPVVTEIDYADSVKGRFTISRNNAMKTVYLQMNNLKPEDTAVYYCNAKRPWGSRDEAWGQGTQVTVSS
– | < 100 nM | – | 009S-E04 R7A (VHH) VHH: DVQLVESGGGLVQAGGSLRLACAGSGRIFAIYDIAWYRHPPGNQRELVAMIRPVVTEIDYADSVKGRFTISRNNAMKTVYLQMNNLKPEDTAVYYCNAKRPWGSADEYWGQGTQVTVSS
– | < 100 nM | – | 009S-E04 G5A (VHH) VHH: DVQLVESGGGLVQAGGSLRLACAGSGRIFAIYDIAWYRHPPGNQRELVAMIRPVVTEIDYADSVKGRFTISRNNAMKTVYLQMNNLKPEDTAVYYCNAKRPWASRDEYWGQGTQVTVSS
– | < 100 nM | – | 009S-E04 S6A (VHH) VHH: DVQLVESGGGLVQAGGSLRLACAGSGRIFAIYDIAWYRHPPGNQRELVAMIRPVVTEIDYADSVKGRFTISRNNAMKTVYLQMNNLKPEDTAVYYCNAKRPWGARDEYWGQGTQVTVSS
< 500 nM | – | – | 013S-D05 (HC SEQ ID NO 23) (VHH) VHH: QVKLEESGGGLVQAGGSLRLSCAASGRIFSIYDMGWFRQAPGKEREFVSGIRWSGGTSYADSVKGRFTISKDNAKNTIYLQMNNLKAEDTAVYYCGSRGYWGQGTLVTVSS
< 500 nM | – | – | 013S-H04 (HC SEQ ID NO 20) (VHH) VHH: AVQLVDSGGGLVQAGGSLRLSCAVSGRTFSMYDMGWFRQAPGKEREFVASIRWSSGNTWYADSMKGRFTISRDNAKNTVYLQMNSLKPEDTAVYYCYANIYYTRRAPEEYWGQGTLVTVSS
< 500 nM | – | – | 013S-C05 (HC SEQ ID NO 22) (VHH) VHH: EVQLVESGGGLVQPGGSLRLSCAVSRNIFPIDDMSWYRQAPGKQRELVATVTSGGRINYADSVKGRFTISRDGARRTIDLQMNNLKPEDTAVYYCNVDRTLYGKYKEYWGQGTLVTVSS
– | – | Kd (LRP6E3E4_O75581_631-1246 [1]): < 500 nM; Kd (LRP6e1e2 [2]): < 500 nM; Kd (LRP6e1e2 [3]): < 500 nM | 009S-H03 (VHH) VHH: DVQLVESGGGLVQAGESLRLSCAASGSIFSINTMGWYRQAPGKERELVAVITSGGKTVYADSVKGRFTITEDAAKNTVYLQMNSLKAEDTAVYYCYADSRSSWYDEYLEHWGQGTLVTVSS
> 500 nM | – | – | 013S-A05 (VHH) VHH: EVQLVESGGGLVQAGGSLRLSCATSGRTFNTYAMGWFRQAPGKEREFVASVSWRYDRTYYTDTVKGRFTISRDNAKNTVYLQMNSLKPEDTAVYFCAADTNWRAGPRVGIDEYAYWGQGTLVTVSS
– | – | Kd (LRP6e1e2 [3]): < 500 nM | 001S-F11 (VHH) VHH: QVQLVESGGGLVQAGGSLRLSCAASGRTFSSYAMSWFRQAPGKEREFVAVIGRSGGIKYYADSVKGRFTISRDNTINTVYLQMNNLTPEDTAIYYCATRRPFNSYNTEQSYDSWGRGTLVTVSS
< 500 nM | – | Kd (LRP6E3E4_O75581_631-1246 [1]): < 500 nM; binding result (LRP6e1e2 [5]): no binding | 013S-G04 (HC SEQ ID NO 15) (VHH) VHH: AVQLVESGGGLVQAGGSLRLACAGSGRIFAIYDIAWYRQAPGNQRELVATIRPVVSETTYADAVKGRFTISRSNAMKTVYLQMNSLKSEDTAIYYCNAKRPWGTRDEYWGQGTLVTVSS
< 500 nM | – | – | 013S-G04 (HC SEQ ID NO 19) (VHH) VHH: AVQLVESGGGLVQAGGSLRLACAGSGRIFAIYDIAWYRQAPGNQRELVATIRPVVSETTYADAVKGRFTISRSNAMKTVYLQMNSLKSEDTAIYYCNAKRPWGTRDEYWGQGTLVTVSS
